Measured values taken from patent US20200115460A1 (TEIJIN PHARMA, published 2020).

Columns and labels:
[1] = biological target: T1, wild-type rat IGF-I receptor (FLAG tag, Example 7) (rat, UniProt P24062 31-1370); assay: Cell ELISA on HEK 293T cells expressing the receptor
T1 construct: Expressed on transfected HEK 293T cells
Experimental: HEK 293T cells were seeded in a 10-cm dish coated with poly-D-lysine at 9×10⁶ cells/well. On the next day, each plasmid DNA was transfected into the cells by lipofection. On the following day, the HEK 293T cells were detached with 0.25% trypsin/EDTA and were suspended in a broth. The HEK 293T cells were added to a 96-well plate (coated with poly-D-lysine) at a concentration of 0.8×10⁵ cells/well and were incubated at 37° C. under conditions of 5% CO₂ overnight. The medium was removed from the 96-well plate, and the cells were immobilized with a 10% buffered formalin (Mildform® 10 NM, Wako). The 10% buffered formalin was replaced with a blocking buffer (3% BSA/PBS/sodium azide), and the plate was used in ELISA.
After washing with a washing liquid twice, anti-mouse-IgG antibody-HRP conjugate solutions (50 μL) adjusted to predetermined concentrations with 0.1% skimmed milk/3% BSA/PBS were added to respective wells and were subjected to reaction at room temperature for about 1 hour. After washing with a washing liquid twice, 100 μL of a substrate (TMB) was added to each well to start the reaction. After about 30 minutes, 100 μL of 0.5 M sulfuric acid was added to each well to stop the reaction, and the absorbances at 450 nm was measured. The value of the absorbance at 450 nm was evaluated as the avidity.

mouse IGF-I receptor = biological target: T2, mouse IGF-I receptor (mouse, UniProt Q60751 31-1373); assay: Cell ELISA, 10 nM antibody, fixed P3U1 cells expressing the receptor
T2 construct: Expressed on transfected P3U1 cells; also called NP_034643
T2 sequence (Q60751 other isoform, or with tags, fused parts or gaps limits assumed): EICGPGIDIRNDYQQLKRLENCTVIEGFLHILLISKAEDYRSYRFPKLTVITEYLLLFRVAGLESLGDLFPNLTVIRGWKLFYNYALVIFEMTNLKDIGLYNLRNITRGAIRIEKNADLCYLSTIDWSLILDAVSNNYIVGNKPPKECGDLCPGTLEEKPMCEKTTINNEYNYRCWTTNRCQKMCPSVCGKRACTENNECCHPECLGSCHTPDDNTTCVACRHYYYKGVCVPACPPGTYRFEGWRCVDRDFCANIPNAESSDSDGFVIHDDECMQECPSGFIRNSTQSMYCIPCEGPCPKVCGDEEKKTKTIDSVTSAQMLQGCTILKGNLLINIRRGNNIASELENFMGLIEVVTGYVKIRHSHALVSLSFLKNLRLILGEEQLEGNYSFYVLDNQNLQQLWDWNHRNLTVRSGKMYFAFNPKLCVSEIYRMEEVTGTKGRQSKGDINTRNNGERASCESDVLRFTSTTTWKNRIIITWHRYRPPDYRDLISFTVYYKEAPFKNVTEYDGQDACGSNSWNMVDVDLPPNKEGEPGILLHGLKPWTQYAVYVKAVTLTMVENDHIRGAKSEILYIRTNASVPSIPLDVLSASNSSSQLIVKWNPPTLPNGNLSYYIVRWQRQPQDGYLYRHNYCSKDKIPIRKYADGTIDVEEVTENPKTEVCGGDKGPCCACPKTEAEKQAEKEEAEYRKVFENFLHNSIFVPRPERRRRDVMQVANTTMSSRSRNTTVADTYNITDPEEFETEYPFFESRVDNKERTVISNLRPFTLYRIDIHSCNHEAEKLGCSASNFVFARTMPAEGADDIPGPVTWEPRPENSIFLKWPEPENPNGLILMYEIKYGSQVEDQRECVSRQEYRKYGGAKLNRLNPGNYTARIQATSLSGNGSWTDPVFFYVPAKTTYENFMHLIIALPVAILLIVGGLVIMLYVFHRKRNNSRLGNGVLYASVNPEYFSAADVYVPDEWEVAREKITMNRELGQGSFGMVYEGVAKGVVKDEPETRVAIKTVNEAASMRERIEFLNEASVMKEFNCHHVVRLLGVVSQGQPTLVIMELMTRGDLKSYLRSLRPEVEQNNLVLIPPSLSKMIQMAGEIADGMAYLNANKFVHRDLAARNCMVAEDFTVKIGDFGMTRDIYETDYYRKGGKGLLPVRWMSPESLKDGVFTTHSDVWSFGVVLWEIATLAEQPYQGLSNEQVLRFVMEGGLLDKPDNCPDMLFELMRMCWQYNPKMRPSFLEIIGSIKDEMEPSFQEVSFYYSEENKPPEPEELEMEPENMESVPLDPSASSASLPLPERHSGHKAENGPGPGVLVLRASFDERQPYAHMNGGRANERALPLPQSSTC
Experimental: (§1) After the lipofection, the P3U1 cells were cultured at least overnight and were added to a 96-well plate (coated with poly-D-lysine) at a concentration of 0.8×10⁵ cells/well and immobilized with 10% buffered formalin (Mildform® 10 NM, Wako), followed by blocking with phosphate buffer containing 3% BSA. The resulting plate was used for ELISA.
(§2) After washing with a washing liquid twice, anti-mouse-IgG antibody-HRP conjugate solutions (30 μL) adjusted to predetermined concentrations with 0.1% skimmed milk/3% BSA/PBS were added to respective wells and were subjected to reaction at room temperature for about 1 hour. After washing with a washing liquid twice, 50 μL of a substrate (TMB) was added to each well to start the reaction. After about 20 minutes, 50 μL of 0.5 M sulfuric acid was added to each well. The absorbances at 450 nm and 550 nm were measured, and the difference between absorbance values at 450 nm and 550 nm was calculated.

human IGF-I receptor [2] = biological target: T3, human IGF-I receptor (human, UniProt P08069 31-1367); assay: as above
T3 construct: Expressed on transfected P3U1 or HEK 293T cells, or native on human myoblasts; also called hIGFIR; IGF-I receptor of human (NP_000866)
Experimental: as §1, §2

rat IGF-I receptor = biological target: T4, rat IGF-I receptor (rat, UniProt P24062 31-1370); assay: as above
T4 construct: Expressed on transfected P3U1 cells; also called NP_494694
T4 sequence (P24062 31-1370 limits assumed): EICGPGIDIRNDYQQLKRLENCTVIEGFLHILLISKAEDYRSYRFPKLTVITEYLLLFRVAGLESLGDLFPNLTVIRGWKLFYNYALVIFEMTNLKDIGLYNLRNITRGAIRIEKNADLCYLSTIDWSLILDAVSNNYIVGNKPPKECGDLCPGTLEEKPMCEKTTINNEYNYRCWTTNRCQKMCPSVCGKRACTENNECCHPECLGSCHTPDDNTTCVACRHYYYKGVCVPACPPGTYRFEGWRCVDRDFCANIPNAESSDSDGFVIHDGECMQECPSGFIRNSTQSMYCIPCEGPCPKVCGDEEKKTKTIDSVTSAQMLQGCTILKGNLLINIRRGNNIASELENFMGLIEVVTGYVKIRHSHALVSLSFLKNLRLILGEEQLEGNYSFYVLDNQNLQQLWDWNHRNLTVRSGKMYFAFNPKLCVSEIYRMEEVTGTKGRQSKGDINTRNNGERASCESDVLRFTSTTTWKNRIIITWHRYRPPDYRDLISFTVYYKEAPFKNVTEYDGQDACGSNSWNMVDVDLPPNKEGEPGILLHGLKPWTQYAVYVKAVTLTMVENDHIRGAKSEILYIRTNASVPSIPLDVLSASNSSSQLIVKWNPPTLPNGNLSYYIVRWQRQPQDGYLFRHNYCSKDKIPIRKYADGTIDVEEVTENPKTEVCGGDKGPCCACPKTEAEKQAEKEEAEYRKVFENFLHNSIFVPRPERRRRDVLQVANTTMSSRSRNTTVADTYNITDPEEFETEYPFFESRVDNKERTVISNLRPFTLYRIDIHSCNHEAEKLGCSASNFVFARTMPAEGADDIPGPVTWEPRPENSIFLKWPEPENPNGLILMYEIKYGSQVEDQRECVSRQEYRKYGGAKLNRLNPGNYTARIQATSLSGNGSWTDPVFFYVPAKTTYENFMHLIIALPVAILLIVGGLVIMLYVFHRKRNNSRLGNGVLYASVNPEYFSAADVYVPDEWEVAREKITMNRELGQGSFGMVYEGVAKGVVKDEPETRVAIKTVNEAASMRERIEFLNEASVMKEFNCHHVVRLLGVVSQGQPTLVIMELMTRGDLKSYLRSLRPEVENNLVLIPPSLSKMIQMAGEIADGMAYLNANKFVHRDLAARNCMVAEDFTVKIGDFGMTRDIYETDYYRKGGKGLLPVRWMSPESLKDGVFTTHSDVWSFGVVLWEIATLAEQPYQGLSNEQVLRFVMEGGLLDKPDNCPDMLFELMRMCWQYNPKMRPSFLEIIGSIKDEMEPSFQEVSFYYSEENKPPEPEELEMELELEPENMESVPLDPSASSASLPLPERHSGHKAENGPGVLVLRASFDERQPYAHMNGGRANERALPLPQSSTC
Experimental: as §1, §2

[3] = biological target: T5, cynomolgus monkey IGF-I receptor (cynomolgus monkey, UniProt P08069 31-1367 (human entry)); assay: as above
T5 construct: Expressed on transfected P3U1 cells; also called NP_001248281
Experimental: as §1, §2

[4] = biological target: T6, guinea pig IGF-I receptor (guinea pig, UniProt P08069 31-1367 (human entry)); assay: as above
T6 construct: Expressed on transfected P3U1 cells, or native on guinea pig myoblasts; also called XP_003475316
Experimental: as §1, §2

rabbit IGF-I receptor = biological target: T7, rabbit IGF-I receptor (rabbit); assay: as above
T7 construct: Expressed on transfected P3U1 cells; also called XP_017193273
Experimental: as §1, §2

human IGF-I receptor [5] = biological target: T3, human IGF-I receptor; assay: Cell ELISA, fixed cells expressing the receptor
Experimental: In ELISA, antibody solutions (30 μL) adjusted to predetermined concentrations with 0.1% skimmed milk/3% BSA/PBS were added to respective wells and were subjected to reaction at room temperature for about 1 hour. After washing with a washing liquid (tris buffer containing Tween) twice, anti-mouse-IgG antibody-ALP conjugate solutions (30 μL) adjusted to predetermined concentrations with 0.1% skimmed milk/3% BSA/PBS were added to respective wells and were subjected to reaction at room temperature for about 1 hour. After washing with a washing liquid twice, 100 μL of a substrate (PNPP) was added to each well to start the reaction.

T1 sequence (P24062 other isoform, or with tags, fused parts or gaps limits assumed): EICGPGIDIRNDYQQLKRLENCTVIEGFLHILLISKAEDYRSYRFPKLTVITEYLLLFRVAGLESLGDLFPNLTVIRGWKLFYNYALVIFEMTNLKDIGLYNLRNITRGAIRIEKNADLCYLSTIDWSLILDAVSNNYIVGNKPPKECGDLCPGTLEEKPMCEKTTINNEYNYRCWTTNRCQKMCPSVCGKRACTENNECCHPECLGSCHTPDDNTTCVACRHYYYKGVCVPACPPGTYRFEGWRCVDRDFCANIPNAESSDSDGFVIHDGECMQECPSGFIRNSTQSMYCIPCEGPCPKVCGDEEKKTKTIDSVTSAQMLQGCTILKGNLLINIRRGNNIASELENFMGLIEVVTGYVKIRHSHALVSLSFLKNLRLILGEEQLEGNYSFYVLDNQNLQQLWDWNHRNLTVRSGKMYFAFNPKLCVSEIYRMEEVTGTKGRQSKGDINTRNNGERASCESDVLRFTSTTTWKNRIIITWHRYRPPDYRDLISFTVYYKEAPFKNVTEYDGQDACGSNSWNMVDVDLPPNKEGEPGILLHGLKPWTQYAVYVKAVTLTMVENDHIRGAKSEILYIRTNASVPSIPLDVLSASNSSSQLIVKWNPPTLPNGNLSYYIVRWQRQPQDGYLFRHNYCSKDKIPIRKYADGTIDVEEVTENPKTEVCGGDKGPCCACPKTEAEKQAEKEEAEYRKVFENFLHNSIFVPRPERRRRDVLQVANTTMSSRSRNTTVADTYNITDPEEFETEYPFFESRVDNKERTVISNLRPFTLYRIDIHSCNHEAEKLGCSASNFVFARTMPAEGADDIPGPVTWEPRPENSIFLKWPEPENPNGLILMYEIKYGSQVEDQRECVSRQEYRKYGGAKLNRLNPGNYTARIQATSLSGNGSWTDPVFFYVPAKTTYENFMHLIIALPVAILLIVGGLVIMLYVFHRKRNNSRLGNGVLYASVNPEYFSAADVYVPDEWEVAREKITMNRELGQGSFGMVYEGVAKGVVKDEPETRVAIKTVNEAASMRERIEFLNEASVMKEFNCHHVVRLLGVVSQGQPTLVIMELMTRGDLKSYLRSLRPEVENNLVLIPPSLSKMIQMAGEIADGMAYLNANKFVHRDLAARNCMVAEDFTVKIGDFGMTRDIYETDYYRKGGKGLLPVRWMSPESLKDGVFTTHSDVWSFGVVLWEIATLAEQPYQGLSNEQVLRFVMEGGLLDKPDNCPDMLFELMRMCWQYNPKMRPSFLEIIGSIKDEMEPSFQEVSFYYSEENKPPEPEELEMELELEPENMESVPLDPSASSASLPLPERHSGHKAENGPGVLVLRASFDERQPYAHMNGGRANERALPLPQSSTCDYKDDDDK

binding result [1]: no binding (tested: 1 nM) | Avidity (absorbance difference 450-550 nm, Mock cells = 1) (mouse IGF-I receptor): 0.9 fold of Mock cells | Avidity (absorbance difference 450-550 nm, Mock cells = 1) (human IGF-I receptor [2]): 5.4 fold of Mock cells | Avidity (absorbance difference 450-550 nm, Mock cells = 1) (rat IGF-I receptor): 1 fold of Mock cells | Avidity (absorbance difference 450-550 nm, Mock cells = 1) [3]: 5.4 fold of Mock cells | Avidity (absorbance difference 450-550 nm, Mock cells = 1) [4]: 5.3 fold of Mock cells | Avidity (absorbance difference 450-550 nm, Mock cells = 1) (rabbit IGF-I receptor): 5.4 fold of Mock cells | avidity (absorbance difference 405-550 nm, Mock cells = 1) at 0.5 nM (human IGF-I receptor [5]): 2.9 fold of Mock cells | avidity (absorbance difference 405-550 nm, Mock cells = 1) at 5 nM (human IGF-I receptor [5]): 3.7 fold of Mock cells
B1: IGF11-16 (antibody, mouse IgG1, kappa, V domains shown)
VH: QIQLQQPGAELVKPGASVKLSCKAPGYTFTSYWMHWVKQRPGQGLEWIGETNPSNSVTNYNEKFKSKATLTVDKSSSTAYMQLSSLTSEDSAVYYCTIGRGRGFAYWGQGTLVTVSA
VL: DIQMNQSPSSLSASLGDTITITCRASQNINFWLSWCQQKPGNIPKLLIYKASNLHTGVPSRFSGSGSGTDFTLTISSLQPEDIATYYCLQGQSYPYTFGGGTKLEIKR
notes: no cleavage site is stated; also called IGF-I receptor agonist antibody; IGF11-16 antibody
